In US20140087395A1:

Molecular target: pig asialo-thyroglobulin (pig) (UniProt F1RRV3)
Assay: cell-based or functional assay

UniProt F1RRV3, sequence (F1RRV3 20-2692 limits assumed): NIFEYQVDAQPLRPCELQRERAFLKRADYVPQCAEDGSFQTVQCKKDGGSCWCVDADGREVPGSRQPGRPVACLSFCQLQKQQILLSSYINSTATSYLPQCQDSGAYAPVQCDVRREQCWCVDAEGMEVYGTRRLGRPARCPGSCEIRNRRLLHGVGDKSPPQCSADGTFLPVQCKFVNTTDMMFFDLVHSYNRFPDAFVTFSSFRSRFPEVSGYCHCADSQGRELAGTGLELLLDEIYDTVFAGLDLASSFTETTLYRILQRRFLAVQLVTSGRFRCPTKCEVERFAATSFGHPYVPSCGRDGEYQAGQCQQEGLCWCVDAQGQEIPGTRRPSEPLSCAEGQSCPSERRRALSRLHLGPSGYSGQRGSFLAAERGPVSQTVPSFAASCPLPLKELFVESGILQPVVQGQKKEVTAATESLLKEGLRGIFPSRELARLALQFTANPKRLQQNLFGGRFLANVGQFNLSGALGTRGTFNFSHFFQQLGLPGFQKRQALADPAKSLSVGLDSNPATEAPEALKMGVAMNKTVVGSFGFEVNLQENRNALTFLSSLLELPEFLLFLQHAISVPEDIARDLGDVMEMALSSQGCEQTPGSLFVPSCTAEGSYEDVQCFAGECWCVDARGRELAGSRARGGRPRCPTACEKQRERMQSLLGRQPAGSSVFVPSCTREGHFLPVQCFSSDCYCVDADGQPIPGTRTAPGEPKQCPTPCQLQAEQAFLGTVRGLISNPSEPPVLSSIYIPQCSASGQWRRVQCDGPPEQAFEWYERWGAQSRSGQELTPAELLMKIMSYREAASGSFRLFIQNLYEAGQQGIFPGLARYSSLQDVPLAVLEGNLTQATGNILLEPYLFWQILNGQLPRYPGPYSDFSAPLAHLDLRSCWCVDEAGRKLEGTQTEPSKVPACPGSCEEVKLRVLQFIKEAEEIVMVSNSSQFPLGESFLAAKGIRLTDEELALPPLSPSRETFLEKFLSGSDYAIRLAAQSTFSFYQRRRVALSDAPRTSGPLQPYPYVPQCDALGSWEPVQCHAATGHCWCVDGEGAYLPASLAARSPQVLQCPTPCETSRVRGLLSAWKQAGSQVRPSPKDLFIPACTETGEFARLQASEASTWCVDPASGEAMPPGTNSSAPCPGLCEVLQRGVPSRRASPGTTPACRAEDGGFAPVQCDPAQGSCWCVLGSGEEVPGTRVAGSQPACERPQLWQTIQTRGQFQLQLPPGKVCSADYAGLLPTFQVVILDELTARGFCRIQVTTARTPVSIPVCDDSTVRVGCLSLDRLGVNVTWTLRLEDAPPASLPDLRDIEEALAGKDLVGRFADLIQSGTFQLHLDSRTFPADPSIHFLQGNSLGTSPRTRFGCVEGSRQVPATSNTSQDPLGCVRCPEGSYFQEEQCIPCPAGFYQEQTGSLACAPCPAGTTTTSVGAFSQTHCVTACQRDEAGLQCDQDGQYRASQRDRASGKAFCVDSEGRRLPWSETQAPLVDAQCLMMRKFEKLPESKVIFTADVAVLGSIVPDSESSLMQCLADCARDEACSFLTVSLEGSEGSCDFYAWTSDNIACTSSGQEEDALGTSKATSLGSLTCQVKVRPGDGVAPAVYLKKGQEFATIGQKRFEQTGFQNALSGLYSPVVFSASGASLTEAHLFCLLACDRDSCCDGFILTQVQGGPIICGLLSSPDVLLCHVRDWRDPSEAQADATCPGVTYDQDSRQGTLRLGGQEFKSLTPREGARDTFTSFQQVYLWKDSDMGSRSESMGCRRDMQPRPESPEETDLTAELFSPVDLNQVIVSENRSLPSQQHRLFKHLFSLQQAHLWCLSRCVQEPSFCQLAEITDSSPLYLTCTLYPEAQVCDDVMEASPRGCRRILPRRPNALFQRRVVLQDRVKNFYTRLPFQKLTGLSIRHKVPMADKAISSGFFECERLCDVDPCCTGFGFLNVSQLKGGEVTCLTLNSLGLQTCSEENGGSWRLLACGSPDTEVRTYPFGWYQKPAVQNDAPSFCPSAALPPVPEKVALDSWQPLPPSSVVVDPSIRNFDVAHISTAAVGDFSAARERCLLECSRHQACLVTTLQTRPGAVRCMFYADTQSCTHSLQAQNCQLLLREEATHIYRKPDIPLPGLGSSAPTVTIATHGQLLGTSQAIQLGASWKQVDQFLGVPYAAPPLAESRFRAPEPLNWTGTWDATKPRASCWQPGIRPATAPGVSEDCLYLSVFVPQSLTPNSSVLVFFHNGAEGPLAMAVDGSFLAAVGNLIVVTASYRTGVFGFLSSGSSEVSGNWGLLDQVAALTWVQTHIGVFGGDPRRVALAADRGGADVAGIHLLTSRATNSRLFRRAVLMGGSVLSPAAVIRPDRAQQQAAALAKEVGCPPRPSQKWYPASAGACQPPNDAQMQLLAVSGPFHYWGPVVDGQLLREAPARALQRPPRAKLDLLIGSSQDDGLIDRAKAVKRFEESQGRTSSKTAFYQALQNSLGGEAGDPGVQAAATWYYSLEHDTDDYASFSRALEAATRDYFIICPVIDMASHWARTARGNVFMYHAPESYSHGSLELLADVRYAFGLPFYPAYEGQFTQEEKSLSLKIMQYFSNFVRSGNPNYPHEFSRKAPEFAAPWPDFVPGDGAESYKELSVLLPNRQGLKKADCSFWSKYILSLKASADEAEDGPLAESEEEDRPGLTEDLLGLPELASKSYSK

inhibition of hemagglutination activity (trypsin-treated rabbit red blood cells): 31 µg/mL
Substance: CBA (Codium barbatum agglutinin), purified from Codium barbatum
